{
  "source": "paper PMC7953435",
  "about": "(Cell host & microbe, 2021)",
  "biological_target": "N-terminal domain of SARS-CoV-2 spike (NTD, residues 1–330) (SARS-CoV-2, UniProt P0DTC2)",
  "experiment": "crystal structure",
  "data": [
    {"binder": "antibody 2–51 Fab (Fab, V domains shown) VH: QVQLVQSGAEVKKPGASVKVSCKVSGYTLIELSMHWVRQAPGKGLEWMGGFDPEDVETIYAQQFQGRVTMTEDTSTDTAYMELSSLRSEDTAVYYCATGWAYKSTWYFGYWGQGTLVTVSS VL: QSALTQPPSASGSPGQSVTISCTGTSSDVGGYNYVSWYQQHPGKAPKLMIYEVSKRPSGVPDRFSGSKSGNTASLTVSGLQAEDEADYYCSSYAGSRMGFGGGTKLTVL", "values": [
      {"measurement": "binding result", "value": "binds"}
    ]}
  ]
}
